The values below are quoted from earlier work in article PMC3281059.

The series addresses actin monomer (UniProt P68133).

pKd: −log10 of the molar value.

With WCA domain WCA (from UniProt O00401), the pKd is 6.22.

For orientation: pKd means −log10 of the Kd, conventionally taken in molar units.
